52 molecules from patent US20150337019A1 (MANUKAMED HOLDINGS LIMITED PARTNERSHIP, published 2015) can be followed below.

For the first test, the target named is T1, Cathepsin B from bovine spleen (bovine, UniProt P07688 80-332). The test is described as follows: cell-based or functional assay.
Take H-Phe-Thr-Lys-OH [H-FTK-OH]: the “Cathepsin B inhibition test, 2 mM peptide” value (“Cathepsin B inhibition test” below) worked out at 148.
Still for that read-out and setting: for H-HNIR-OH (also: MGO-modified, site not given here) [MGO-modified H-HNIR-OH] the value was 103; for H-IFVTMLR-OH [H-IFVTMLR-OH], 80.5.
The same measure, in the same setting: for H-Phe-Asp-Arg-OH (also: MGO-modified, site not given here) [MGO-modified H-FDR-OH] the value was 71.2.
Still for that read-out and setting: then H-YINR-OH (also: MGO-modified, site not given here) [MGO-modified H-YINR-OH], with 79.2; and Ac-Phe-Asp-Arg-OH [Ac-FDR-OH], with 85.6; and Ac-HNIR-OH [Ac-HNIR-OH], with 172.
On to Ac-HNIR-OH (also: MGO-modified, site not given here) [MGO-modified Ac-HNIR-OH], for which the “Cathepsin B inhibition test” value was determined as 107.
Still for that read-out and setting: for Ac-YINR-OH [Ac-YINR-OH] the value was 93.1; for Ac-Phe-Asp-Arg-OH (also: MGO-modified, site not given here) [MGO-modified Ac-FDR-OH], 44.8.
On the same count and under the same terms, then H-YINR-OH [H-YINR-OH], with 142; and H-Phe-Thr-Lys-OH (also: MGO-modified, site not given here) [MGO-modified H-FTK-OH], with 76.6; and H-Phe-Asp-Arg-OH [H-FDR-OH], with 175.
With Ac-Phe-Thr-Lys-OH (also: MGO-modified, site not given here) [MGO-modified Ac-FTK-OH], the “Cathepsin B inhibition test” value was found to be 105.
The same measure, in the same setting: then H-HNIR-OH [H-HNIR-OH], with 152; and Ac-Phe-Thr-Lys-OH [Ac-FTK-OH], with 149; and Ac-YINR-OH (also: MGO-modified, site not given here) [MGO-modified Ac-YINR-OH], with 99.

A further test deals with T1, Cathepsin B from bovine spleen. Nature of the test: cell-based or functional assay. This is another data set of the same source.
On to Ac-Met-Asp-Lys-OH [Ac-MDK-OH], for which the “Cathepsin B inhibition test” value came to 110.
Still for that read-out and setting: then Ac-Met-Asp-Arg-OH [Ac-MDR-OH], with 107; and Ac-Thr-Asp-Lys-OH [Ac-TDK-OH], with 101; and H-Met-Asn-Arg-OH (also: MGO-modified, site not given here) [MGO-modified H-MNR-OH], with 78.6.
Same read-out and setting: then Ac-Thr-Asn-Arg-OH [Ac-TNR-OH], with 96.5.
Still for that read-out and setting: for H-Leu-Gln-Lys-OH (also: MGO-modified, site not given here) [MGO-modified H-LQK-OH] the value was 95.3; for Ac-Val-Asn-Arg-OH [Ac-VNR-OH], 99.8; for Ac-Ile-Asp-Arg-OH [Ac-IDR-OH], 93.5.
For the molecule H-Met-His-Arg-OH (also: MGO-modified, site not given here) [MGO-modified H-MHR-OH], the “Cathepsin B inhibition test” value came out at 80.7.
Still for that read-out and setting: for Ac-Ile-Asp-Arg-OH (also: MGO-modified, site not given here) [MGO-modified Ac-IDR-OH] the value was 81.8; for Ac-Met-Asn-Arg-OH (also: MGO-modified, site not given here) [MGO-modified Ac-MNR-OH], 86.9; for H-Thr-Asn-Arg-OH (also: MGO-modified, site not given here) [MGO-modified H-TNR-OH], 91.9.
With Ac-Leu-Gln-Lys-OH (also: MGO-modified, site not given here) [MGO-modified Ac-LQK-OH], the “Cathepsin B inhibition test” value was 90.2.
On the same count and under the same terms, for H-Leu-Gln-Lys-OH [H-LQK-OH] the value was 102; for Ac-Met-Asp-Lys-OH (also: MGO-modified, site not given here) [MGO-modified Ac-MDK-OH], 99.4.
The same measure, in the same setting: for H-Thr-Asp-Lys-OH [H-TDK-OH] the value was 103; for H-Ile-Asp-Arg-OH (also: MGO-modified, site not given here) [MGO-modified H-IDR-OH], 85.6.
On the same count and under the same terms, then Ac-Thr-Asp-Lys-OH (also: MGO-modified, site not given here) [MGO-modified Ac-TDK-OH], with 92.8.
Turning to H-Met-Asp-Lys-OH [H-MDK-OH], the “Cathepsin B inhibition test” value is 104.
Still for that read-out and setting: for Ac-Met-Asp-Arg-OH (also: MGO-modified, site not given here) [MGO-modified Ac-MDR-OH] the value was 88.6.
As for Ac-Met-His-Arg-OH (also: MGO-modified, site not given here) [MGO-modified Ac-MHR-OH], the “Cathepsin B inhibition test” value came to 90.1.
Take H-Met-Asp-Arg-OH [H-MDR-OH]: the “Cathepsin B inhibition test” value was 102.
Ac-Met-His-Arg-OH [Ac-MHR-OH]: the “Cathepsin B inhibition test” value is 101.
On the same count and under the same terms, for Ac-Leu-Gln-Lys-OH [Ac-LQK-OH] the value was 102; for H-Ile-Asp-Arg-OH [H-IDR-OH], 98; for H-Thr-Asp-Lys-OH (also: MGO-modified, site not given here) [MGO-modified H-TDK-OH], 87.5.
Still for that read-out and setting: for H-Thr-Asn-Arg-OH [H-TNR-OH] the value was 103; for Ac-Val-Asn-Arg-OH (also: MGO-modified, site not given here) [MGO-modified Ac-VNR-OH], 68.5.
On the same count and under the same terms, for H-Met-Asp-Lys-OH (also: MGO-modified, site not given here) [MGO-modified H-MDK-OH] the value was 70.6.
With H-Val-Asn-Arg-OH [H-VNR-OH], the “Cathepsin B inhibition test” value came out at 97.8.
H-Met-His-Arg-OH [H-MHR-OH]: the “Cathepsin B inhibition test” value is 96.8.
On the same count and under the same terms, for Ac-Thr-Asn-Arg-OH (also: MGO-modified, site not given here) [MGO-modified Ac-TNR-OH] the value was 91.7.
Still for that read-out and setting: then H-Met-Asp-Arg-OH (also: MGO-modified, site not given here) [MGO-modified H-MDR-OH], with 74.5; and H-Val-Asn-Arg-OH (also: MGO-modified, site not given here) [MGO-modified H-VNR-OH], with 82.6; and Ac-Met-Asn-Arg-OH [Ac-MNR-OH], with 101.
